Results taken from US8003342.

Biological target: rat brain farnesyl:protein transferase (rat) (UniProt Q04631)
Test: cell-based or functional assay

| Substance | fold decline of affinity [fold] | concentration giving 50% inhibition [µM] | fold decrease of affinity against CVIM, from the concentration required for 50% inhibition [fold] |
| --- | --- | --- | --- |
| CVIM with glutamic acid at the A2 position (peptide) | > 50 | – | – |
| CVIM with glycine at the X position (peptide) | – | > 40 | – |

The next lines start with the values.

| fold decline of affinity [fold] | concentration giving 50% inhibition [µM] | fold decrease of affinity against CVIM, from the concentration required for 50% inhibition [fold] | Substance |
| --- | --- | --- | --- |
| – | > 40 | – | CVIM with glutamic acid at the X position (peptide) |
| > 50 | – | > 30 | CVIM with lysine at the A2 position (peptide) |
| – | > 40 | > 30 | CVIM with lysine at the X position (peptide) |
